“Also recorded” adds a separate entry of the source.
Tests used:
AKT1 = AKT1 mRNA and protein knockdown in breast cancer cell lines; format: cell-based, human; set-up: AKT1 protein silencing by flow cytometry: dose or concentration left out as unconfirmed; conditions: for AKT1 mRNA and protein knockdown across cell lines: basal-A, luminal, basal-B lines, fibroblasts
Experimental: (§1) For uptake and silencing treatment, cells were plated at low density (10,000 cells/well in 96-well plates) and treated immediately. All AsiC and siRNA treatments were performed in either OptiMEM or WIT medium. Cell viability was assessed by CellTiter-Glo (Promega) or by Trypan-Blue staining in 96-well plates.
For flow cytometry, cells were stained as previously described (Yu, F. et al (2007). let-7 Regulates Self Renewal and Tumorigenicity of Breast Cancer Cells. Cell 131, 1109-1123. ), briefly, direct immunostaining of EpCAM and AKT1 was performed using 1:50 dilutions of hAb for 30-60 minutes at 4° C. (BioLegend/BD). Cells were stained in PBS containing 0.5% FCS, 1 mM EDTA, and 25 mM HEPES. Samples were washed twice in the same buffer. Data was acquired using FACS-Canto II (BD Biosciences). Analyses were performed in triplicate and 10,000 gated events/sample were counted. All data analysis was performed using FlowJo (Treestar Inc.).
qRT-PCR analysis was performed as described (Petrocca, F., et al. (2008). E2F1-regulated microRNAs impair TGFbeta-dependent cell-cycle arrest and apoptosis in gastric cancer. Cancer Cell 13, 272-286). Briefly, total RNA was extracted with Trizol (Invitrogen) and cDNA prepared from 1000 ng total RNA using Thermoscript RT kit (Invitrogen) as per the […] (Applied Biosystems) and a BioRad C1000 Thermal Cycler (Biorad). Relative CT values were normalized to GAPDH and converted to a linear scale.

basal-A TNBCs = assay: Bortezomib on TNBC cell lines in vitro; format: cell-based, human
basal-A TNBC tumors = conditions: mouse, in vivo
Excerpt: We next tested whether proteasome inhibition inhibited the growth of basal-like TNBC tumors in mice.

[1] = system: basal-A, luminal and basal-B breast cancer cell lines; assay: Cell proliferation/viability by CellTiter-Glo in 10 breast cancer cell lines; format: cell-based, human
Excerpt: To explore whether EpCAM-AsiCs could be used as anti-tumor agents in breast cancer, we examined by CellTiterGlo assay the effect of AsiCs directed against PLK1, a kinase required for mitosis, on survival of 10 breast cancer cell lines that included 5 basal-A TNBCs, 2 luminal cell lines, and 3 basal-B TNBCs. […] The anti-proliferative effect strongly correlated with EpCAM expression (FIG. 2B). The reduction in viable EpCAM+ cells after knockdown was due to induction of apoptosis, assessed by annexin V-propidium iodide staining and caspase activation (data not shown). To determine whether ligation of the EpCAM aptamer contributed to the anti-proliferative effect of the EpCAM-AsiC, we compared survival of cells that were treated with the PLK1 EpCAM-AsiC with cells treated with the aptamer on its own (FIG. 2C). […] Thus the PLK1 EpCAM-AsiC asserts its specific anti-tumor effect on EpCAM+ breast cancer cells by gene knockdown.
as §1

MB468-luc tumors = assay: Tumor inhibition, EpCAM+ MB468-luc xenograft; format: in vivo, nude mice; conditions: 5 mg/kg sc every 3 d (72 h) for 2 wks
Experimental: (§2) For tumor inhibition studies, MB468-luc (5×10^6) and MB231-luc-mCherry (5×10^5) cells trypsinized with Tryple Express (Invitrogen), resuspended in a 1:1 WIT-Matrigel solution and injected subcutaneously in the flank of 8-week old female Nu/J mice (Stock #002019, Jackson Laboratories). Tumors size was analyzed daily using the IVIS Spectra, after 5 days tumors were clearly visible. […] Mice were treated every 72 h for 14 days.

Argonaute (AGO) = assay: PLK1 siRNA association with Argonaute (pan-AGO immunoprecipitation, qRT-PCR); format: cell-based, human; conditions: MDA-MB-468 cells treated 2 days
Excerpt: MB-468 cells, treated with PLK1 EPCAM-AsiC or siRNA for 2 days, were lysed, and cell lysates were immunoprecipitated with pan-AGO antibody or IgG isotype control. The amount of PLK1 siRNA in the immunoprecipitates was quantified by Taqman qRT-PCR, presented as log2 mean with SEM, relative to miR-16. **, P<0.01 by Student's t-test relative to siRNA-treated cells. ND, not detectable. […] This is likely because most RNAs that are taken up by cells are not released from endosomes to the cytosol (A. Wittrup et al., Visualizing lipid-formulated siRNA release from endosomes and target gene knockdown. Nature Biotechnology 2015, in press).
Uptake was clearly detected at 22 hr, but increased greatly after 43 hr. To test whether EpCAM-AsiCs are specifically taken up by EpCAM bright cell lines, the 3′ end of the antisense strand of the AsiC was fluorescently labeled. […] Previous studies have shown that AsiCs are processed within cells by Dicer to release the siRNA from the aptamer (10, 12, 15).

breast cancer cell lines [2] = assay: Colony formation assay; format: cell-based, human; conditions: AsiC 4 uM, paclitaxel 100 nM
Experimental: (§3) For colony formation assay, 1,000 viable cells were treated for 6 h in round bottom 96-well plates and then transferred to 10-cm plates in serum-containing medium. Medium was replaced every 3 d. After 8-14 d, cells were fixed in methanol (−20 C) and stained with crystal violet. For sphere formation assay, 1,000/ml viable cells were treated for 6 h in round bottom 96-well plates and then cultured in suspension in serum-free DMEM/F12 1:1 (Invitrogen), supplemented with EGF (20 ng/ml, BD Biosciences), B27 (1:50, Invitrogen), 0.4% bovine serum albumin (Sigma) and 4 μg/ml insulin (Sigma). Spheres were counted after 1 or 2 weeks.

breast cancer cell lines [3] = assay: Sphere (mammosphere) formation assay; format: cell-based, human
Experimental: as §3

[4] = system: eGFP expression in BPLER and BPE cells; assay: eGFP knockdown in GFP-expressing BPLER and BPE cells; format: cell-based, human; conditions: AsiC 4 μM without lipid, siRNA 100 nM with Dharmafect, 72 hours
Experimental: FIG. 21A depicts the design of EpCAM-AsiC, containing an EpCAM aptamer and a PLK1 siRNA (sense strand disclosed as SEQ ID NO: 1 and antisense strand disclosed as SEQ ID NO: 2). […] EpCAM-AsiC targeting GFP was Alexa647 or Cy3 labeled at the 3′ end of the antisense siRNA strand and incubated with BPLER and BPE cells. Uptake was assessed 24 hours later by flow cytometry (FIG. 21C). Data are representative of 3 independent experiments. Cy3 and Alexa647-labeled EpCAM-AsiC was taken up by MB468 and BPLER (EpCAM+ cells) respectively and not by BPE (EpCAM−). MFI of each peak is shown (mock, gray). FIG. 21D depicts graphs of experiments in which, to test for gene silencing, BPLER and BPE were treated with EpCAM-AsiC targeting GFP (4 μM) and compared to Transfection controls using Dharmafect and GFP-siRNA (100 nM). Knockdown was assessed by flow cytometry 72 hours after incubation. Controls were mock and Dhrmafect only treatment (lipid). (n=4).
as §1
Cells were transfected with Dharmafect I per the manufacturer's protocol. See FIG. 9 for all siRNA sequences.

MB231-luc-mCherry tumors = assay: Tumor inhibition, EpCAM− MB231-luc-mCherry xenograft; format: in vivo, nude mice; conditions: 5 mg/kg sc every 3 d (72 h) for 2 wks
Experimental: as §2

MB468-luc cells = assay: Tumor initiation by ex vivo treated EpCAM+ cells in nude mice; conditions: cells treated ex vivo 24 h/overnight, then implanted; imaged 20 days; listed as EpCAM-AsiC targeting GFP
Experimental: For tumor initiation studies 8-week old female Nu/J mice (Stock #002019, Jackson Laboratories) were injected subcutaneously with MB468-luc (5×10^6) cells pretreated for 24 h with EpCAM-AsiC-GFP, EpCAM-AsiC-PLK1 or untreated. Cells were trypsinized with Tryple Express (Invitrogen), resuspended in WIT media and injected subcutaneously in the flank. Following intraperitoneal injection of 150 mg/kg D-luciferin (Caliper Life Sciences) luminescent images of the whole body were taken every 5 days for a total of 20 days using the IVIS Spectra system (Caliper Life Sciences).

AKT1 siRNA: AKT1 siRNA, sense SEQ ID NO: 29, antisense SEQ ID NO: 30 (sense GCUGGAGAACCUCAUGCUG; antisense CAGCAUGAGGUUCUCCAGC; listed as RNA, chemistry not given here) [reference compound]
AKT1 mRNA and protein knockdown across cell lines (AKT1): comparably knocked down expression in all the cell lines studied

CC(C)C[C@H](NC(=O)[C@H](Cc1ccccc1)NC(=O)c1cnccn1)B(O)O [bortezomib]
killing and T-IC function (colony, mammosphere) (basal-A TNBCs): both killed basal-A TNBCs and also blocked T-IC function | viable cells after treatment (basal-A TNBCs; 24 hr): ~40% | penetration into solid tumors (basal-A TNBC tumors): does not penetrate well into solid tumors

PLK1 siRNA: PLK1 siRNA, sense SEQ ID NO: 31, antisense SEQ ID NO: 32 (sense UGAAGAAGAUCACCCUCCUUA; antisense UAAGGAGGGUGAUCUUCUUCA; listed as RNA, chemistry not given here) [reference compound]
cell proliferation/viability, all cell lines tested [1]: suppressed the growth of all the cell lines | growth of EpCAM+ MB468 tumors (MB468-luc tumors): continued to grow without significant change; also recorded: neither of which had any anti-tumor activity | PLK1 siRNA bound to Ago / in the RISC (Argonaute (AGO)): No PLK1 siRNA bound to Ago

CC(=O)O[C@H]1C(=O)[C@@]2(C)[C@H]([C@H](OC(=O)c3ccccc3)[C@]3(O)C[C@H](OC(=O)[C@H](O)[C@@H](NC(=O)c4ccccc4)c4ccccc4)C(C)=C1C3(C)C)[C@]1(OC(C)=O)CO[C@@H]1C[C@@H]2O [paclitaxel, reference compound]
colony formation, EpCAM+ basal-A and luminal lines (breast cancer cell lines [2]): resistant clones emerged | colony formation, EpCAM− basal-B lines (breast cancer cell lines [2]): reducing colony formation but still resistant clones invariably emerged | colony formation, cell lines tested (breast cancer cell lines [2]): decreased colony formation in all cells lines | sphere/mammosphere formation, cell lines tested (breast cancer cell lines [3]): reduced sphere-formation in all

B1: GFP EpCAM-AsiC: EpCAM aptamer-GFP siRNA chimera, sense SEQ ID NO: 25, antisense SEQ ID NO: 26 (nucleic acid)
sense: GCGACUGGUUACCCGGUCGUUUGGCUACGUCCAGGAGCGCATT
antisense: UGCGCUCCUGGACGUAGCCTT
modifications: DNA at T, 2'-fluoro at CU, RNA at AG, backbone not given here; EpCAM aptamer fused to sense strand
eGFP knockdown, BPLER vs BPE ([4]; listed as EpCAM-AsiCs targeting GFP): selectively knocked down expression in BPLER | eGFP knockdown, BPLER vs BPE ([4]; listed as eGFP EpCAM-AsiCs): selectively knocked down expression only in BPLER | colony formation, cell lines tested (breast cancer cell lines [2]): had no effect | sphere/mammosphere formation, cell lines tested (breast cancer cell lines [3]): had no effect | AKT1 mRNA and protein knockdown across cell lines (AKT1; listed as AsiCs targeting eGFP): had no effect on AKT1 levels | AKT1 mRNA and protein knockdown across cell lines (AKT1; listed as EpCAM-AsiC targeting GFP): did not effect any of the cell lines | growth of EpCAM+ MB468 tumors (MB468-luc tumors; listed as GFP AsiC): did not increase in size as much as control untreated mice | growth of EpCAM+ MB468 tumors (MB468-luc tumors; listed as eGFP-targeting AsiCs): continued to grow | growth of EpCAM− MB231 tumors (MB231-luc-mCherry tumors; listed as EpCAM-Asic targeting GFP): suppress tumor growth in both EpCAM+ and EpCAM-tumors but didn't eliminate tumors | growth of EpCAM− MB231 tumors (MB231-luc-mCherry tumors; listed as eGFP-targeting AsiCs): continued to grow | tumor initiation, EpCAM+ cells (MB468-luc cells): displayed tumors after 5 days; also recorded: displayed increase in tumor initiation

B2: AKT1 EpCAM-AsiC: EpCAM aptamer-AKT1 siRNA chimera, sense SEQ ID NO: 23, antisense SEQ ID NO: 24 (nucleic acid)
sense: GCGACUGGUUACCCGGUCGUUGCUGGAGAACCUCAUGCUGTT
antisense: CAGCAUGAGGUUCUCCAGCTT
modifications: chemistry not fully specified
AKT1 protein silencing by flow cytometry (AKT1; EpCAM-AsiC for 5 days): specific AKT1 protein silencing | AKT1 mRNA and protein knockdown across cell lines (AKT1; listed as EpCAM-AsiC targeting AKT1): decreased AKT1 mRNA and protein levels | AKT1 mRNA and protein knockdown across cell lines (AKT1; listed as EpCAM-AsiCs targeting AKT1): only in EpCAM^bright luminal and basal-A TNBCs
